Legend:
[1] = biological target: T1, alboaggregin B (AL-B), Trimeresurus albolabris venom (Trimeresurus albolabris, UniProt P81115+P81116); experiment: Effect of sugars on binding of AL-B to platelets (lectin test); details: sugar at concentrations up to 5 mg/ml
T1 sequence (P81115 24-156): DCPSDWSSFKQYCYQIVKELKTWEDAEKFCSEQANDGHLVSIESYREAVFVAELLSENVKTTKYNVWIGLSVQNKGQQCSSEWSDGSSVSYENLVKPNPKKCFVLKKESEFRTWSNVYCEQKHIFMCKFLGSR
T1 sequence (P81116 24-146): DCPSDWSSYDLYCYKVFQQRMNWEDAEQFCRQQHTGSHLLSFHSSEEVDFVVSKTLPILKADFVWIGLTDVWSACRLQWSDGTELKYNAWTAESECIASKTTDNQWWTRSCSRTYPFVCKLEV
Description: Several galactose-specific lectins that agglutinate platelets have been reported in snake venoms. Their presence can be detected by inhibition of lectin-induced agglutination by galactose or other sugars. In order to determine whether the alboaggregins function as lectins, we examined the effects of eight different sugars (lactose, galactose, galactosamine, mannosamine, glucosamine, N-acetyl glucosamine, α-methyl glucoside and α-methyl mannoside) at concentrations up to 5 mg/ml.
Binding of ^125 I-bovine vWF and 125I-alboaggregins to labeled platelets was carried out according to Kirby, J. Lab. Clin. Med. 100, 963-976 (1982). Platelets were diluted and incubated at 37° C. for at least 10 min. prior to performing binding studies. Radiolabeled proteins were diluted in Tris-saline buffer containing 1 mg/ml of BSA and preincubated with buffer or a sample to be tested for inhibitory activity. The platelet suspension (1.9×10^8 platelets/ml) was added to the radiolabeled protein (26 ng/ml) and incubated at 37° C. for different periods of time. Unlabeled AL-B (1.8 μg/ml or 8.6 μg/ml) was added to duplicate suspensions after 5 min. of incubation with ^125 I-AL-B. Platelets were separated from free ligand by centrifugation for 4 min. at 12000 g. Supernatant and pellets were counted in an […] gamma counter to determine the amount of free and platelet-bound radioactivity, respectively.

[2] = biological target: human platelet membrane glycoprotein Ib (human) (UniProt P07359); experiment: radioligand competition on fixed platelets; competitor 125I-bovine vWF
[3] = biological target: human platelet membrane glycoprotein Ib (human) (UniProt P07359); experiment: radioligand competition on platelets; competitor 125I-echicetin
[4] = biological target: human platelet membrane glycoprotein Ib (human) (UniProt P07359)
[5] = biological target: human platelet membrane glycoprotein Ib (human) (UniProt P07359); experiment: Scatchard analysis of 125I-echicetin binding to fixed platelets, three experiments
[6] = biological target: human platelet membrane glycoprotein Ib (human) (UniProt P07359); experiment: Scatchard analysis of 125I-echicetin binding to fixed platelets
[7] = biological target: human platelet membrane glycoprotein Ib (human) (UniProt P07359); experiment: unlabeled AL-C competing on platelets; competitor 125I-AL-C
[8] = biological target: human platelet membrane glycoprotein Ib (human) (UniProt P07359); experiment: unlabeled AL-C competing on platelets; competitor 125I-bovine vWF
[9] = biological target: human platelet membrane glycoprotein Ib (human) (UniProt P07359); experiment: direct binding of 125I-AL-C to platelets
[10] = biological target: human platelet membrane glycoprotein Ib (human) (UniProt P07359); experiment: unlabeled AL-C competing on platelets; competitor 125I-AL-B
[11] = biological target: human platelet membrane glycoprotein Ib (human) (UniProt P07359); experiment: unlabeled AL-C competing on platelets; competitor 125I-AL-A
[12] = tested on: alboaggregin A (AL-A), Trimeresurus albolabris venom, SEQ ID NOS: 1, 2, 3 and 4; experiment: Platelet agglutination induced by AL-A in the presence of inhibitors; assay type: cell-based
Description: (§1) Agglutination of platelet-rich plasma, washed platelets and fixed platelets by AL-B was performed according to the method described by Kirby, J Lab Clin. Med. 100, 963-976 (1982). Platelet agglutination was assayed at 37° C. with constant stirring at 1200 RPM in an aggregometer and the extent of light transmission change was measured after two minutes. AL-B was added to suspensions of (A) fixed washed platelets or (B) washed platelets at final concentrations of (A) 0.2, 0.4, 0.6, 0.9 and 1.7 μg/ml and (B) 0.12, 0.24 and 0.48 μg/ml, respectively. The platelet concentration was approximately 3×10^8 platelets/ml in each suspension. AL-B agglutinated both fixed platelets and washed platelets in a dose-dependent manner. Once platelets were maximally agglutinated by AL-B, addition of bovine vWF gave no further response.
All three alboaggregins agglutinated platelet rich plasma and fixed platelets directly. To induce the same amount of platelet agglutination by bovine vWF, twice as much vWF was required to obtain the same change in light transmission. […] Platelet agglutination activity of each of the alboaggregins was similar in terms of their EC50 values.
(§2) Platelet agglutination induced by AL-A or AL-B was not inhibited by EDTA (10 raM) , soybean trypsin inhibitor (0.5 mg/ml) N-ethylmaleimide, (10 raM) or PGE1 (0.35 μM).

[13] = biological target: T1, alboaggregin B (AL-B), Trimeresurus albolabris venom; experiment: Platelet agglutination induced by AL-B in the presence of inhibitors; assay type: cell-based
Description: as §1, §2

[14] = biological target: T2, human platelet membrane glycoprotein Ib (human, UniProt P07359); experiment: unlabeled bovine vWF competing on platelets; competitor 125I-AL-B
[15] = biological target: T2, human platelet membrane glycoprotein Ib; experiment: radioligand competition on platelets; competitor 125I-echicetin
[16] = biological target: T2, human platelet membrane glycoprotein Ib; experiment: unlabeled bovine vWF competing on platelets; competitor 125I-bovine vWF
[17] = biological target: T2, human platelet membrane glycoprotein Ib; experiment: unlabeled bovine vWF competing on platelets; competitor 125I-AL-C
[18] = biological target: T2, human platelet membrane glycoprotein Ib; experiment: radioligand competition on fixed platelets; competitor 125I-bovine vWF (0.57 µg/ml)
[19] = biological target: T2, human platelet membrane glycoprotein Ib; experiment: unlabeled bovine vWF competing on platelets; competitor 125I-AL-A

Q: How did the “effect on the binding of AL-B to platelets” value (“effect on the binding of AL-B” for short) [1] turn out when `N[C@@H]1C(O)O[C@H](CO)[C@@H](O)[C@@H]1O` (stereo partly drawn) [mannosamine] was run?
A: The value was “None of these sugars showed any effect”.

Q: How did the “effect on the binding of AL-B” value [1] turn out when `OC[C@H]1O[C@@H](O[C@H]2[C@H](O)[C@@H](O)C(O)O[C@@H]2CO)[C@H](O)[C@@H](O)[C@H]1O` (stereo partly drawn) [lactose] was run?
A: Its value is “None of these sugars showed any effect”.

Q: With `N[C@H]1C(O)O[C@H](CO)[C@H](O)[C@@H]1O` (stereo partly drawn) [galactosamine] as the molecule, how does the “effect on the binding of AL-B” value [1] read?
A: Its value is “None of these sugars showed any effect”.

Q: echicetin (ligand) was tested. Which IC50 [2] did it give?
A: Its IC50 is 0.2 µg/mL.

Q: And the IC50 [3]?
A: Its IC50 is greater than 0.5 µg/mL.

Q: What about the concentration for 50% inhibition of AL-B-induced agglutination of fixed platelets [4] of the same molecule?
A: Its concentration for 50% inhibition of AL-B-induced agglutination of fixed platelets is 1.05 µg/mL.

Q: And the concentration for 50% inhibition of botrocetin/human vWF-induced agglutination of fixed platelets [4]?
A: The concentration for 50% inhibition of botrocetin/human vWF-induced agglutination of fixed platelets was 1.1 µg/mL.

Q: What about the concentration for 50% inhibition of bovine vWF-induced agglutination of fixed platelets [4] of the same molecule?
A: Its concentration for 50% inhibition of bovine vWF-induced agglutination of fixed platelets is 0.4 µg/mL.

Q: And the concentration for 50% inhibition of bovine vWF-induced agglutination of washed platelets [4]?
A: Its concentration for 50% inhibition of bovine vWF-induced agglutination of washed platelets is 0.15 µg/mL.

Q: And the Kd [5]?
A: Its Kd is 30 nM.

Q: What about the binding sites per platelet (binding sites per platelet) [6] of the same molecule?
A: The binding sites per platelet (binding sites per platelet) was 45000.

Q: galactose was tested. Which “effect on the binding of AL-B” value [1] did it give?
A: Its value is “None of these sugars showed any effect”.

Q: Which IC50 [7] does the source give for alboaggregin C (ligand) here?
A: Its IC50 is 0.3 µg/mL.

Q: What about the IC50 [8] of the same molecule?
A: The IC50 was 0.2 µg/mL.

Q: And the percent of total radioactivity added that bound [9]?
A: The percent of total radioactivity added that bound was 78%.

Q: And the IC50 [10]?
A: The IC50 was 1 µg/mL.

Q: And the IC50 [11]?
A: The IC50 was 1.7 µg/mL.

Q: For `CCN1C(=O)C=CC1=O` [N-ethylmaleimide], which “inhibition of platelet agglutination induced by AL-A” value ([12]; N-ethylmaleimide 10 raM) is on record?
A: Its value is “not inhibited”.

Q: What about the “inhibition of platelet agglutination induced by AL-B” value ([13]; N-ethylmaleimide 10 raM) of the same molecule?
A: The value was “not inhibited”.

Q: What does the source list for `O=C(O)CN(CCN(CC(=O)O)CC(=O)O)CC(=O)O` [EDTA]?
A: inhibition of platelet agglutination induced by AL-A ([12]; EDTA 10 raM): not inhibited; inhibition of platelet agglutination induced by AL-B ([13]; EDTA 10 raM): not inhibited

Q: How did the “effect on the binding of AL-B” value [1] turn out when `CO[C@H]1O[C@H](CO)[C@@H](O)[C@H](O)[C@@H]1O` [α-methyl mannoside] was run?
A: The value was “None of these sugars showed any effect”.

Q: How did the “inhibition of platelet agglutination induced by AL-A” value ([12]; PGE1 0.35 μM) turn out when `CCCCC[C@H](O)/C=C/[C@H]1[C@H](O)CC(=O)[C@@H]1CCCCCCC(=O)O` [PGE1] was run?
A: Its value is “not inhibited”.

Q: And the “inhibition of platelet agglutination induced by AL-B” value ([13]; PGE1 0.35 μM)?
A: Its value is “not inhibited”.

Q: Which “effect on the binding of AL-B” value [1] does the source give for `N[C@H]1C(O)O[C@H](CO)[C@@H](O)[C@@H]1O` (stereo partly drawn) [glucosamine] here?
A: Its value is “None of these sugars showed any effect”.

Q: `CO[C@H]1O[C@H](CO)[C@@H](O)[C@H](O)[C@H]1O` [α-methyl glucoside] was tested. Which “effect on the binding of AL-B” value [1] did it give?
A: The value was “None of these sugars showed any effect”.

Q: `CC(=O)N[C@H]1C(O)O[C@H](CO)[C@@H](O)[C@@H]1O` (stereo partly drawn) [N-acetyl glucosamine] was tested. Which “effect on the binding of AL-B” value [1] did it give?
A: Its value is “None of these sugars showed any effect”.

B1: bovine von Willebrand factor (ligand)
chain: SLSCRPPMVKVVCPADNPRAEGLECTKTCQNYDLECMSTGCVSGCLPAPGMVRHENRCVALERCPCFHQGREYAPGDRVKVDCNSCVCQDRKWNCTDHVCDASCSALGLAHYFTFDGLKYLFPGECQYVLVQDHCGSNPGTFRVLVGNEGCSVPSLKCRKRITILVEGGEIELFD
Q: What does the source list for B1?
A: IC50 [14]: > 10 µg/mL; IC50 [15]: > 20 µg/mL; IC50 [16]: 2.1 µg/mL; IC50 [17]: > 10 µg/mL; IC50 [18]: ~10 µg/mL; IC50 [19]: > 10 µg/mL
